Results on 1 substance are retold here after patent US20140056902A1.

Assay [1] concerns the target human BMP9 recombinant protein prepared according to Example 12 of WO 2010/126169 (N-terminal His-tagged hBMP9 complex, pLN1V5_human BMP9 vector) (human) (UniProt Q9UK05). Put plainly: SPR (BIAcore 2000), antibody captured on anti-mouse IgG, human BMP9 recombinant protein as analyte, single cycle kinetics.
For assay [2], the target named is human mature dimer BMP9 recombinant protein (manufactured by R&D systems, Cat#3209-BP) (human) (UniProt Q9UK05). In words: ELISA, immobilized human BMP9 (100 ng/mL coat), biotin-labeled antibody titrated, absorbance 450-570 nm; unit ng/mL from the legend.
human mature dimer BMP9 recombinant protein (manufactured by R&D systems, Cat#3209-BP) (human), sequence (Q9UK05 320-429): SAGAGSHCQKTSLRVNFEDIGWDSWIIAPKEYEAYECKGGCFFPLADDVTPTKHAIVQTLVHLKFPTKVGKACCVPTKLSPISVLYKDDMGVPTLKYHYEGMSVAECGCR

human BMP9 recombinant protein prepared according to Example 12 of WO 2010/126169 (N-terminal His-tagged hBMP9 complex, pLN1V5_human BMP9 vector) (human), sequence (Q9UK05 320-429, chain 1 of 2): as the sequence (Q9UK05 320-429) above
human BMP9 recombinant protein prepared according to Example 12 of WO 2010/126169 (N-terminal His-tagged hBMP9 complex, pLN1V5_human BMP9 vector) (human), sequence (Q9UK05 23-319, chain 2 of 2): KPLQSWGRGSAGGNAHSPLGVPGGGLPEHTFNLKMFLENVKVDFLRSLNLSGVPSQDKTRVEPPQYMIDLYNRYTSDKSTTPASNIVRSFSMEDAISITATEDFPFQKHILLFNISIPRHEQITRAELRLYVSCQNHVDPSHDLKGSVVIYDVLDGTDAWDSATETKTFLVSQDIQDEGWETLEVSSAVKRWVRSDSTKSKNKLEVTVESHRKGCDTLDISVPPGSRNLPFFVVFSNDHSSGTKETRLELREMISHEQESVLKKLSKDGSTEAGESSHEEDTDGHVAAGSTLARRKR

Consider “anti-human BMP9 mouse monoclonal antibody (manufactured by R&D systems, clone No. 360107)”, for which, in assay [1], the Kd was 0.616 nM and the Relative binding affinity (to R&D antibody) was 1 fold. In addition, in assay [2], the EC50 (read off the curve) amounted to 10 ng/mL.
